Data taken from US20250340636A1, “ANTIBODIES TARGETING L1CAM AND USES THEREOF” (MEMORIAL SLOAN-KETTERING CANCER CENTER, priority 2023, published 2025).

Legend:
[1] = molecular target: T1, HEK293FT cells transiently transfected with mouse L1CAM (Mus musculus, UniProt P11627); assay: Flow cytometry binding to HEK293FT cells transiently transfected with mouse L1CAM
T1 construct: expressed in transfected cells; host or cells: HEK293FT (transient)
Protocol: Hybridoma Screening. Binding to human L1CAM protein was tested by ELISA and to a HEK293T cell line overexpressing human L1CAM by flow cytometry. […] Cross-reactivity to cynomolgus L1CAM was not assessed at this point, as it is >99% homologous to human L1CAM. […] The antibodies were tested for binding to MDA-MB-231 cells, a breast cancer cell line that endogenously expresses L1CAM, followed by analysis of their internalization efficacy in MDA-MB-231 cells.
Binding Analysis. […] Dissociation constants (KD) for binding to soluble human and cynomolgus monkey L1CAM-His were determined using biolayer interferometry (BLI). In addition, EC50 values for binding to cell-bound L1CAM were established by flow cytometry using HEK293T/FT cells overexpressing human or mouse L1CAM, MCF-7 cells, and MDA-MB-231 cells. In addition, the epitope regions of the mAbs were determined by BLI interaction analysis with L1CAM subdomains (Ig and FN) expressed individually, and by a BLI competition experiment to identify epitope bins.
The binding curves for each antibody and cell line normalized to secondary antibody only staining (MFI ratio) are shown in FIGS. 14A-14C. EC50 values were determined by non-linear regression (Table 70). […] It is possible that differences in the conformation and oligomerization of L1CAM, depending on the surface expression level, contributed to the binding pattern. […]

[2] = molecular target: T2, recombinant L1CAM-Fc fusion protein (Homo sapiens, UniProt P32004); assay: BLI binding of 76H12 Fabs to recombinant L1CAM-Fc; details: L1CAM-Fc on AHC biosensors, Fab 3-200 nM, 1:1 model
T2 construct: purchased R&D Systems; host or cells: mammalian cells
T2 sequence (P32004 20-1120): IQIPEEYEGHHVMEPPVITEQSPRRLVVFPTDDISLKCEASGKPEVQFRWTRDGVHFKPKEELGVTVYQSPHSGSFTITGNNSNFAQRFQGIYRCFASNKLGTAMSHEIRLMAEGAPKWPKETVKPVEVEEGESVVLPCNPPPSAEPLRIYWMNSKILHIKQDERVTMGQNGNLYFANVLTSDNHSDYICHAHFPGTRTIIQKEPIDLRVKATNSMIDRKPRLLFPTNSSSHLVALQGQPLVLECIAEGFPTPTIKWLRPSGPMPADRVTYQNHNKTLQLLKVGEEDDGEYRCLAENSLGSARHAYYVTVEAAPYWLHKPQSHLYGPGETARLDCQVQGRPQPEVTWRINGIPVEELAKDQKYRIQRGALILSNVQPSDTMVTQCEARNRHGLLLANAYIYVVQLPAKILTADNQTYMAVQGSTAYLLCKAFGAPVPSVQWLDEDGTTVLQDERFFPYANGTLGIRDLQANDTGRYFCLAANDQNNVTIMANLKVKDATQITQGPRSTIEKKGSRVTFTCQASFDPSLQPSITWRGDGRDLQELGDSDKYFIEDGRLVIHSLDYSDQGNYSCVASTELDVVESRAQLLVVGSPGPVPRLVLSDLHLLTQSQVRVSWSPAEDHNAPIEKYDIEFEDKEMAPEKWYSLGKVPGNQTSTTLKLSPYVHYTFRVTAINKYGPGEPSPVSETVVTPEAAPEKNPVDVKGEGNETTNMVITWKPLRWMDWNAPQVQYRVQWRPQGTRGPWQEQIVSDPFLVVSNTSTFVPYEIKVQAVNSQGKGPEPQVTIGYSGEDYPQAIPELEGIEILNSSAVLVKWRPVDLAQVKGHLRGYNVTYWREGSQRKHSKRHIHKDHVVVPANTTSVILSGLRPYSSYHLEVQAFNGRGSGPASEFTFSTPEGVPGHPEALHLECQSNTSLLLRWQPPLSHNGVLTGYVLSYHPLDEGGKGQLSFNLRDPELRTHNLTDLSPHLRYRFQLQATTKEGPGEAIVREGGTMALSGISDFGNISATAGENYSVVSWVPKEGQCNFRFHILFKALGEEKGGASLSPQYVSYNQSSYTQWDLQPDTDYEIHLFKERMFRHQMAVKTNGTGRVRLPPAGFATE
From the text: A total of 11 humanized 76H12 Fab variants (Fabs 2-12) were generated in addition to a chimeric 76H12 Fab (Fab 1) containing the parental murine VH and VL sequences. The chimeric Fab served as the benchmark for comparative assessment of humanized Fab variants. Humanized Fabs were first assessed by flow cytometry for binding to 293T cells engineered to overexpress L1CAM (FIG. 32A). All humanized variants bound to the L1CAM overexpressing cells, with most binding comparably to the chimeric 76H12 Fab. […] Here, recombinant L1CAM-Fc fusion protein was immobilized onto anti-Human IgG Fc Capture (AHC) biosensors and binding of Fabs was measured kinetically over a 3-200 nM concentration range. Kinetic data were fitted to a 1:1 binding model to compute association (kon) and dissociation (koff) rate constants, in addition to equilibrium dissociation constants (KD) as shown in Table 87. […] From these, Fab 3 represents the preferred humanized variant given higher identity to human germline IGHV1-46 and IGKV1-39 sequences resulting from fewer human-to-murine framework back mutations.

T1 sequence (P11627 20-1260): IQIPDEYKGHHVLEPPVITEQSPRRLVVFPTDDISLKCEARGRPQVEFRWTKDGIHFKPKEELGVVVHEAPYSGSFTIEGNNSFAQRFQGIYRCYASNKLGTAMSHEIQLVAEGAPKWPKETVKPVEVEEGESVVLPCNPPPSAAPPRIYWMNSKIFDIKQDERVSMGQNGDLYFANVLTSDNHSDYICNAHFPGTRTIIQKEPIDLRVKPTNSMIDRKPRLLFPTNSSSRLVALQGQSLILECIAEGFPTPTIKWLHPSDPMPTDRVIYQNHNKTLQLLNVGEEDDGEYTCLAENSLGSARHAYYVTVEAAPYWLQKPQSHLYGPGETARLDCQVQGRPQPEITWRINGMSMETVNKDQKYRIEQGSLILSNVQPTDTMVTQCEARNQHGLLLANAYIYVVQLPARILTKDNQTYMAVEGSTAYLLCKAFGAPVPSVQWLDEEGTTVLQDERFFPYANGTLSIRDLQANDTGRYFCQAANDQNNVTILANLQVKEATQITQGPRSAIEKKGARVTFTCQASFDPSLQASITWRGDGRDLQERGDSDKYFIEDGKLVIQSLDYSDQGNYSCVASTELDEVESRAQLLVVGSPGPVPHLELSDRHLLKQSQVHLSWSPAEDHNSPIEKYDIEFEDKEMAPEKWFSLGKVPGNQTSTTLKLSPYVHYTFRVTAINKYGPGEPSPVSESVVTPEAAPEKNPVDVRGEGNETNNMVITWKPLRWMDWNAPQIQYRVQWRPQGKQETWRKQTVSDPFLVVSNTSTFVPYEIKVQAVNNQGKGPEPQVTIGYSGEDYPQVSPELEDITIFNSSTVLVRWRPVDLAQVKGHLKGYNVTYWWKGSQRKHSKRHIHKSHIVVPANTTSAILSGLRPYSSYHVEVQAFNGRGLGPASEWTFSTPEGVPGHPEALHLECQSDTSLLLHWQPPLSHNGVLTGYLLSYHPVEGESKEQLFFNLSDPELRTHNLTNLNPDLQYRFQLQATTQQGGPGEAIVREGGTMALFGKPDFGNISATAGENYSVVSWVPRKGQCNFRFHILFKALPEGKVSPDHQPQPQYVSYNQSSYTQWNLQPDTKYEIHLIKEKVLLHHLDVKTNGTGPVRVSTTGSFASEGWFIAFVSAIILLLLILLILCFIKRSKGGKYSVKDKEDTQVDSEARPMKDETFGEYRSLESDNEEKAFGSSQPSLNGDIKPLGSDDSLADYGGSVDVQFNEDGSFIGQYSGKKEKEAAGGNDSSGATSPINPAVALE

cross-reactivity with mouse L1CAM [1]	Molecule	affinity for L1CAM relative to the chimeric Fab (Fab 1) [2]
cross-reacted with mouse L1CAM	14A10: anti-L1CAM mAb from AlivaMab mice (human variable regions, mouse IgG1 Fc); VH SEQ ID NO: 87, VL SEQ ID NO: 88 (antibody, V domains shown) VH: EVQMVESGGGLVQPGGSLRLSCAAPGFIFSSYNMNWVRQAPGKGLEWVSYISSSSSTTYYADSVKGRFTISRDNAKNSLYLQMNSLRDEDTAVYYCASLYSGYDYYYYYGMDVWGQGTTVTVSS VL: DIVMTQTPLSSPVSLGQPASISCRSSQSLVHSDGNTYLSWLQQRPGQPPRVLIYKISKRFSGVPDRFSGSGAGTDFTLKISRVEAEDVGVYYCMQATQFPFTFGPGTKVDIK	
	Fab 3: humanized 76H12 Fab variant, preferred; design in Table 86 (antibody, V domains shown) VH: QVQLVQSGAEVKKPGASVKVSCKASGYTFTSYWMHWVRQAPGQGLEWIGNVYPGSGSTKYAQKFQGRATLTVDTSTSTVYMELSSLRSEDTAVYYCARPGNYEGFAYWGQGTLVTVSS VL: DIQLTQSPSSLSASVGDRVTITCRASESVDSYGSSFMHWYQQKPGKPPKLLIYLASNLESGVPSRFSGSGSGTDFTLTISSLQPEDFATYYCQQNNEDPWTFGQGTKLEIK	equivalent or better affinity than the chimeric Fab
	Fab 4: humanized 76H12 Fab variant; design in Table 86 (antibody, V domains shown) VH: QVQLVQSGAEVKKPGASVKVSCKASGYTFTSYWMHWVRQAPGQGLEWIGNVYPGSGSTKYAQKFQGRATLTVDTSTSTVYMELSSLRSEDTAVYYCARPGNYEGFAYWGQGTLVTVSS VL: DIQLTQSPSSLSASVGDRVTITCRASESVDSYGSSFMHWYQQKPGKPPKLLIYLASNLESGVPSRFSGSGSRTDFTLTISSLQPEDFATYYCQQNNEDPWTFGQGTKLEIK	equivalent or better affinity than the chimeric Fab
	Fab 5: humanized 76H12 Fab variant; design in Table 86 (antibody, V domains shown) VH: QVQLVQSGAEVKKPGASVKVSCKASGYTFTSYWMHWVRQAPGQGLEWIGNVYPGSGSTKYAQKFQGRATLTVDTSTSTVYMELSSLRSEDTAVYYCARPGNYEGFAYWGQGTLVTVSS VL: NIQLTQSPSSLSASVGDRVTITCRASESVDSYGSSFMHWYQQKPGKPPKLLIYLASNLESGVPSRFSGSGSGTDFTLTISSLQPEDFATYYCQQNNEDPWTFGQGTKLEIK	equivalent or better affinity than the chimeric Fab
